{"source": "paper PMC8152475", "about": "(Biomedicines, 2021)", "molecules": {"B1": {"name": "MPT64: secretory immunodominant antigen of MTB, located in the RD2 region (protein)", "chain": "APKTYCEELKGTDTGQACQIQMSDPAYNINISLPSYYPDQKSLENYIAQTRDKFLSAATSSTPREAPYELNITSATYQSAIPPRGTQAVVLKVYQNAGGTHPTTTYKAFDWDQAYRKPITYDTLWQADTDPLPVVFPIVQGELSKQTGQQVSIAPNAGLDPVNYQNFAVTNDGVIFFFNPGELLPEAAGPTQVLVPRSAIDSMLA"}}, "key": {"[1]": {"tested_on": "murine macrophages and patients with TB", "settings": "ref [10],[11]; cited from earlier work"}, "HK2": {"tested_on": "HK2", "assay_type": "binding"}, "[2]": {"tested_on": "apoptosis and inflammation", "settings": "ref [10],[11]; cited from earlier work"}, "[3]": {"tested_on": "Caspase 3, FasL, Fas, and Bax in epithelioid cells and multinucleated giant cells", "settings": "ref [45]; cited from earlier work"}, "TBK1": {"molecular_target": "T1, TBK1 (Homo sapiens, UniProt Q9UHD2)", "T1 sequence (Q9UHD2 1-729)": "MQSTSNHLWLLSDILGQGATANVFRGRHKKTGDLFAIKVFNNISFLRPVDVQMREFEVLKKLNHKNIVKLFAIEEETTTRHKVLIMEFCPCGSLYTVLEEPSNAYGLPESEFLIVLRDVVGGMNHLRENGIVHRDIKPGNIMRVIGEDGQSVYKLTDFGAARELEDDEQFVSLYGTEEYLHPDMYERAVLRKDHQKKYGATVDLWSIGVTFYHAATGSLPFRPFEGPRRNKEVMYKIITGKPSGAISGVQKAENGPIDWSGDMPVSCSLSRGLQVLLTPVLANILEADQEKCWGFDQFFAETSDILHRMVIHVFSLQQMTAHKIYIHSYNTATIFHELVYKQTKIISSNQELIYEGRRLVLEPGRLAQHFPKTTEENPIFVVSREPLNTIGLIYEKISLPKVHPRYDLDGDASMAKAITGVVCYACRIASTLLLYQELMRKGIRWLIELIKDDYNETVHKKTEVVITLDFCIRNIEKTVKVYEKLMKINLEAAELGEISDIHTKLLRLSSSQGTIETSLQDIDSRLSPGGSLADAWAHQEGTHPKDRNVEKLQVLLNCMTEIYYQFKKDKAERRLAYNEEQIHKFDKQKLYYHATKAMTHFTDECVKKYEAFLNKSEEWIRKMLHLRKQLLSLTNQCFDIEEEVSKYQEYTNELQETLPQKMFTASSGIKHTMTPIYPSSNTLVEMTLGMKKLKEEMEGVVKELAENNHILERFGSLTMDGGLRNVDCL", "assay_type": "binding"}}, "data": [{"molecule": "B1", "values": [{"measurement": "production of IFN-γ", "setting": "[1]", "result": "induced the production of IFN-γ in murine macrophages and patients with TB"}, {"measurement": "domain of HK2 required for binding", "setting": "HK2", "result": "HK2 domain in HK2 were found to be essential for their interaction with MPT64"}, {"measurement": "region of MPT64 binding HK2", "setting": "HK2", "result": "The C-terminal of MPT64 was associated with HK2 and its essential peptides were located between 187–193"}, {"measurement": "apoptosis, TGF-β expression and inflammation", "setting": "[2]", "result": "reduced apoptosis by increasing the expression of TGF-β and reducing inflammation"}, {"measurement": "relation to expression of apoptotic factors", "setting": "[3]", "result": "related to the expression of apoptotic factors, such as Caspase 3, FasL, Fas, and Bax"}, {"measurement": "region of MPT protein binding TBK1", "setting": "TBK1", "result": "The N-terminal domain of MPT64 interacted with TBK1, and the core peptide sequences for binding were 24–28 and 34–38 peptides"}]}]}
